We go through one molecule from article PMC8643700.

This data set concerns the target Cas9wt (SpCas9) (Streptococcus pyogenes, UniProt Q99ZW2 1-1368). As to the kind of experiment: single-molecule magnetic tweezers.

Chain of Cas9wt (SpCas9) (Q99ZW2 whole entry): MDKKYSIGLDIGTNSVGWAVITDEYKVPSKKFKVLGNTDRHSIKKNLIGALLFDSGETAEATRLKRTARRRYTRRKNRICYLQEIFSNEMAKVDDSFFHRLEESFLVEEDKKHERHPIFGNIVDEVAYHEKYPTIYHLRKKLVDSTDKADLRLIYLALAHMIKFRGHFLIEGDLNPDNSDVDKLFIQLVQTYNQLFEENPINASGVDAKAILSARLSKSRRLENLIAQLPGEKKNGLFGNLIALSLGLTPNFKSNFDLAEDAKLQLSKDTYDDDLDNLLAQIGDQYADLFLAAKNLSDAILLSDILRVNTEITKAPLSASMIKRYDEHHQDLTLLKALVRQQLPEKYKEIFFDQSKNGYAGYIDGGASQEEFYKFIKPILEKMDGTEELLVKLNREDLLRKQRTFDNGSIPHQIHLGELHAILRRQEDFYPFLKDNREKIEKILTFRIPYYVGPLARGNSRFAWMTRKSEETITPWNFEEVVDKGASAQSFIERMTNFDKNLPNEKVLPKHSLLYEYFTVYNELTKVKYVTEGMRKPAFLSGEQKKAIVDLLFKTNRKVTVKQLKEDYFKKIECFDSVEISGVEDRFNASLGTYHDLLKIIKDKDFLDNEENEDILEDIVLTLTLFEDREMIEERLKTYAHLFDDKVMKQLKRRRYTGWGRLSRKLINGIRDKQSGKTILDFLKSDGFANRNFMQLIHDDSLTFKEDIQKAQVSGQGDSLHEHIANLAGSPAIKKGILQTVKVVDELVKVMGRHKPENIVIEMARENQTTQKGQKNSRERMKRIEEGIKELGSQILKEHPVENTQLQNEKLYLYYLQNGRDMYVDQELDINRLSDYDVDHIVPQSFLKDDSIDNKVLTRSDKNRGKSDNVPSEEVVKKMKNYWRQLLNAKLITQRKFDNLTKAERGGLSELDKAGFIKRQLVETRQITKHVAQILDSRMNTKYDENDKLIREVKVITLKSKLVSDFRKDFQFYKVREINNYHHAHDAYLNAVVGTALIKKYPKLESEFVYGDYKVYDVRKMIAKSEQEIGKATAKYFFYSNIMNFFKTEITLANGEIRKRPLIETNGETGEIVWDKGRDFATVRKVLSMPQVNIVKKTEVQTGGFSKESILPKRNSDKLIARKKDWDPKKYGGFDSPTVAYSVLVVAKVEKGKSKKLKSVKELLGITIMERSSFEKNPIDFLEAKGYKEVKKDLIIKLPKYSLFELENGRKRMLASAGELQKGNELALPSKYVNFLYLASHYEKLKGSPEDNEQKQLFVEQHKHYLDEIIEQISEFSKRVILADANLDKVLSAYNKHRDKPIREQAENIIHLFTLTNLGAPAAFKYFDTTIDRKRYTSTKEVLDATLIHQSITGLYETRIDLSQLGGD

B1: sgRNA MT + 2.7 kb DNA with FM protospacer (mixed)
RNA: GAGCGAUACACAUGAGACGCGUUUUAGAGCUAGAAAUAGCAAGUUAAAAUAAGGCUAGUCCGUUAUCAACUUGAAAAAGUGGCACCGAGUCGGUGCUUUUU
Regarding B1, the binding result is listed as “binds”.
